Source: patent publication US11286278B2, “DPEP-1 binding agents and methods of use” (Arch Biopartners, Inc., priority 2018, dated 2022)
Ends that are not written are not given here. * marks the point of attachment. Biotin = O=C1N[C@H]2[C@H](CS[C@H]2CCCCC(=O)*)N1

Experiments:
[1] = molecular target: T1, human membrane dipeptidase (DPEP-1) (Homo sapiens, UniProt P16444); experiment: Membrane dipeptidase enzyme activity assay (Gly-D-Phe, fluorometric); format: biochemical; details: lysates of transfected Cos1 cells, substrate Gly-D-Phe
T1 construct: expressed in transfected cells; host or cells: Cos-1
T1 sequence (P16444 17-385): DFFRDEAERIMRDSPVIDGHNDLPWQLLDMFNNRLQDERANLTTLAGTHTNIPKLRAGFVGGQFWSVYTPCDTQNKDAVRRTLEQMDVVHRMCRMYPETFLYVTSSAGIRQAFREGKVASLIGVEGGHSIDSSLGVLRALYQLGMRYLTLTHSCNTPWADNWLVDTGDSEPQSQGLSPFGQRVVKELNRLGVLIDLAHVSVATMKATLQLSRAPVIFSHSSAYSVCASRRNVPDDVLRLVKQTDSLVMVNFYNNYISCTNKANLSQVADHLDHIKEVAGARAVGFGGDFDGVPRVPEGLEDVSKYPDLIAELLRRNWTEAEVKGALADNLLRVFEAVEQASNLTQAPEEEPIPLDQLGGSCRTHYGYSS
Experimental: 24 hours after transfection, DPEP-1 expressing cells weer reseeded on 24 well collagen coated (neutralized) plates and allowed to grow for 24 hours at 37° C. […] Cells were blocked with FBS/NBSA/Tween in PBS for 30 minutes on ice. […] After incubation, cells were washed with PBS and stained with DAPI for 4 minutes on ice. Cells were again washed with PBS, fixed using 4% paraformaldehyde and immunofluoresence microscopy was performed to assess binding. Proteins from human DPEP-1 transfected cells were isolated after 48 hours using octyl-glucoside/RIPA in the absence of protease inhibitors. […] Proteins from transfected cells were isolated after 48 hours using octyl-glucoside/RIPA lysis buffer and western blot analysis was performed to assess DPEP-1 expression using DPEP-1 antibody (Sigma).
The fluorescence signal generated from the conversion of D-Phe to […] in the presence of D-aminoacidoxidase and peroxidase was measured using a fluorescence plate reader.
Proteins from DPEP-1 transfected cells were isolated after 48 hours using octyl-glucoside/RIPA lysis buffer and western blot analysis was performed to assess DPEP-1 expression using a DPEP-1 specific antibody (Proteintech) (FIG. 24B).

[2] = molecular target: T2, DPEP1 (Homo sapiens, UniProt P16444); experiment: Alanine-substituted peptide binding to DPEP1 transfected HEK 293 cells, immunofluorescence; set-up: expressed in transfected cells; host or cells: HEK 293; details: test peptide at 5 uM, 1 hr at room temperature
T2 sequence (P16444 17-385): T1 sequence (P16444 17-385)
Experimental: […] were transfected with DPEP1 or DPEP2, two days prior to assay and were plated onto collagen-coated coverslips one day prior. Then fixed 10 min with 3.7% formaldehyde in PBS, washed 3 times in PBS, incubated with Alanine-substituted test peptide at 5 uM each, 1 hr at room temperature, washed twice with PBS gently, incubated with 1/50 Alexa 568-straptavadin in PBS, 1 hr at room temperature, washed twice with PBS gently and added DAPI Mounted with DAKO Fluorescent mounting media and evaluated for binding under fluorescence microscope.

[3] = Circular dichroism spectroscopy of LSALT peptide and analogs; format: physicochemical; set-up: Inducible Helical Structure (50% TFE-benign): unit not given here; details: for Inducible Helical Structure (50% TFE-benign) / [θ] (222 nm) 50% TFE / % Inducible Helical Structure (Inducible/50% TFE) / [θ] (222 nm) Benign (No TFE): 222 nm; for % Inducible Helical Structure (Inducible/50% TFE): 50% TFE is considered 100% folded; for [θ] (222 nm) Benign (No TFE): benign buffer (100 mM KCl, 50 mM Na2HPO4/NaH2PO4, pH 7.0)
Experimental: The physical and chemical properties of protein therapeutics are critical factors that influence the ease of manufacturing, development and clinical use. The LSALT peptide was evaluated in terms of its solubility, aggregation state and stability using a variety of biophysical methods.
In circular dichroism spectroscopy the ellipticity value at 222 nm is a measure of a-helical content. 50% trifluoroethanol is a hydrophobic solvent and induces α-helical structure if the structure can be induced. All of the peptides tested can be induced to adopt α-helical structure. The peptides are random coils in benign conditions (non-denaturing). The buffer conditions were aqueous phosphate, pH 7.0.

Row | Compound | inhibition of human DPEP1 enzymatic activity [1] | inhibition of human DPEP1 enzymatic activity ([1]; listed as cilastatin) | inhibition of human DPEP1 enzymatic activity ([1]; listed as penicillamine) | binding to DPEP-1 by immunofluorescence (alanine mutants) [2] | Inducible Helical Structure (50% TFE-benign) [3] | [θ] (222 nm) 50% TFE [3] | % Inducible Helical Structure (Inducible/50% TFE) [3] | [θ] (222 nm) Benign (No TFE) [3] | inducible α-helical structure (in words) ([3]; 50% trifluoroethanol)
1 | CC1(C)C[C@@H]1C(=O)N/C(=C\CCCCSC[C@H](N)C(=O)O)C(=O)O [Cilastatin] | inhibited the activity | can be inhibited | – | – | – | – | – | – | –
2 | CC(C)(S)[C@@H](N)C(=O)O [Penicillamine] | inhibited the activity | – | can be inhibited | – | – | – | – | – | –
3 | ASALTPSPSWLKYKAL [Pos 1] | – | – | – | decreased and increased binding to DPEP-1 | – | – | – | – | –
4 | Ac-LSALTPSPSWLKYKAL [Peptide A17] | – | – | – | – | 17,615 | −74897 | 23.5% | −57282 | –
5 | Ac-LSALTPSPSWLKYKAL-amide (Ac-LSALTPSPSWLKYKAL-NH2) [Peptide A18] | – | – | – | – | 40,612 | −78951 | 51.4% | −38340 | –
6 | Bio-ASALTPSPSWLKYKAL (Biotin-ASALTPSPSWLKYKAL) [Peptide A1] | – | – | – | – | 37,752 | −119807 | 31.5% | −82054 | –
7 | Bio-LAALTPSPSWLKYKAL [Peptide A2] | – | – | – | – | 51,374 | −117502 | 43.7% | −66128 | significantly enhances inducible α-helical structure
8 | Bio-LSAATPSPSWLKYKAL [Peptide A4] | – | – | – | – | 16,397 | −76916 | 21.3% | −60519 | –
9 | Bio-LSALAPSPSWLKYKAL [Peptide A5] | – | – | – | – | 29,755 | −79198 | 37.6% | −49443 | –
10 | Bio-LSALTGSPSWLKYKAL [Peptide A6] | – | – | – | – | 28,435 | −70926 | 40.1% | −42491 | –
11 | Bio-LSALTPAPSWLKYKAL [Peptide A7] | – | – | – | – | 20,988 | −70198 | 29.9% | −49209 | –
12 | Bio-LSALTPSASWLKYKAL [Peptide A8] | – | – | – | – | 9,444 | −42335 | 22.3% | −32890 | –
13 | Bio-LSALTPSPAWLKYKAL [Peptide A9] | – | – | – | – | 13,436 | −62889 | 21.4% | −49453 | –
14 | Bio-LSALTPSPSALKYKAL (Biotin-LSALTPSPSALKYKAL) [Peptide A10] | – | – | – | – | 9,583 | −35792 | 26.8% | −26209 | –
15 | Bio-LSALTPSPSWAKYKAL (Biotin-LSALTPSPSWAKYKAL) [Peptide A11] | – | – | – | – | 21,682 | −80196 | 27.0% | −58514 | –
16 | Bio-LSALTPSPSWLAYKAL (Biotin-LSALTPSPSWLAYKAL) [Peptide A12] | – | – | – | – | 8,451 | −36742 | 23.0% | −28292 | –
17 | Bio-LSALTPSPSWLKAKAL (Biotin-LSALTPSPSWLKAKAL) [Peptide A13] | – | – | – | – | 31,488 | −80841 | 39.0% | −49352 | –
18 | Bio-LSALTPSPSWLKYAAL (Biotin-LSALTPSPSWLKYAAL) [Peptide A14] | – | – | – | – | 14,068 | −39862 | 35.3% | −25794 | –
19 | Bio-LSALTPSPSWLKYKAA (Biotin-LSALTPSPSWLKYKAA) [Peptide A16] | – | – | – | – | 11,796 | −37070 | 31.8% | −25275 | –
20 | Bio-LSALTPSPSWLKYKAL-amide (Biotin-LSALTPSPSWLKYKAL-NH2) [Peptide A19] | – | – | – | – | 77,996 | −153947 | 50.7% | −75952 | –
21 | Bio-LSALTPSPSWLKYKGL (Biotin-LSALTPSPSWLKYKGL) [Peptide A15] | – | – | – | – | 23,450 | −92167 | 25.4% | −68717 | –
22 | Bio-LSGLTPSPSWLKYKAL [Peptide A3] | – | – | – | – | 18,865 | −68580 | 27.5% | −49714 | –
23 | LSALAPSPSWLKYKAL [Pos 5] | – | – | – | decreased and increased binding to DPEP-1 | – | – | – | – | –
24 | LSALTPSPSALKYKAL [Pos 10] | – | – | – | decreased and increased binding to DPEP-1 | – | – | – | – | –
25 | LSALTPSPSWLAYKAL [Pos 12] | – | – | – | decreased and increased binding to DPEP-1 | – | – | – | – | –
